In patent US20140178935A1 (AVEO PHARMACEUTICALS, published 2014):

T1: recombinant mhm chimeric HGF protein containing human W507-L585 HGF sequence disposed within mouse HGF … (mouse-human-mouse chimera, UniProt Q08048 56-728)
T1 construct: CHO supernatant; also called mhm chimera (W507-L585); MHM chimera (507-585)
T1 chain: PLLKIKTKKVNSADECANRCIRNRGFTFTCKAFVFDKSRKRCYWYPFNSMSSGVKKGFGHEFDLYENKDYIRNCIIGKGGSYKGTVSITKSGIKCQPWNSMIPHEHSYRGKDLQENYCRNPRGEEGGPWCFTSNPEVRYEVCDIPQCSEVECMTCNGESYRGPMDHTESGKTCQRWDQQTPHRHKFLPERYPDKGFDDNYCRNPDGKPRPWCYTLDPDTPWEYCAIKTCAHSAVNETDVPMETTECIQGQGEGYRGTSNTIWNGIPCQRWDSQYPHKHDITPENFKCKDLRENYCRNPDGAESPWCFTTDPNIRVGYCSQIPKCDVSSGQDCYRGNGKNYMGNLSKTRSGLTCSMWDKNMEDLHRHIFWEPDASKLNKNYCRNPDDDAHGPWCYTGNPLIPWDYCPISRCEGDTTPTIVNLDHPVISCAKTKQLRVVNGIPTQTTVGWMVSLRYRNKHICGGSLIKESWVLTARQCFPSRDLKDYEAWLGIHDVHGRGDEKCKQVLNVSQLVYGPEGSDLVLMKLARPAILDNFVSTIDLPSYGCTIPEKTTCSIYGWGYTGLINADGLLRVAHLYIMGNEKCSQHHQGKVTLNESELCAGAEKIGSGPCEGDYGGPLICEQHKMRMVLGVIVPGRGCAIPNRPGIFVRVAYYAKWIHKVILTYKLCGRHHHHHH

T2: recombinant mhm chimeric HGF protein containing the region I499-R556 of hHGF disposed between murine sequences (mouse-human-mouse chimera, UniProt Q08048 56-728)
T2 construct: also called mhm chimera (I499-R556)
T2 chain: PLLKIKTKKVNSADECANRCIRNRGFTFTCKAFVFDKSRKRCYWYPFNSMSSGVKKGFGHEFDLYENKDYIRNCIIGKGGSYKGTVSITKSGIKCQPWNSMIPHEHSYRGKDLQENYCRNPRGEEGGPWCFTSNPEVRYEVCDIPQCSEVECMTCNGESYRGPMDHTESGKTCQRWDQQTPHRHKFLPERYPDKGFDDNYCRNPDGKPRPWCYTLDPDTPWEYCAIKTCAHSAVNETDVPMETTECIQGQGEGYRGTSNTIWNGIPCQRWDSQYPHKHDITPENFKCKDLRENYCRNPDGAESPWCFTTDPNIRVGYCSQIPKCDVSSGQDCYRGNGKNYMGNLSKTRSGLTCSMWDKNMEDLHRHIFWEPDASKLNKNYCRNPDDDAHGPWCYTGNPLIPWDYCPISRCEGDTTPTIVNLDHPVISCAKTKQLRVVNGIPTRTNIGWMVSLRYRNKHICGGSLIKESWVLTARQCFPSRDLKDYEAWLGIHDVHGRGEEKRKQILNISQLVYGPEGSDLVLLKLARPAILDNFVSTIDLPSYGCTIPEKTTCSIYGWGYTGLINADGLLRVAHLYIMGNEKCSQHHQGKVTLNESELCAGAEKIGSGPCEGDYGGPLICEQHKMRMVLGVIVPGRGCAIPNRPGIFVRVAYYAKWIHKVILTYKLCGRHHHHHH


Key:
[1] = biological target: T3, recombinant human HGF (R&D Systems, Catalog No. 294-HGN-025) (human, UniProt P14210 32-728); test: competition ELISA (DELFIA): antibody inhibits biotinylated c-Met binding to plate-coated HGF
T3 construct: Mature HGF is a disulfide-linked heterodimer of alpha and beta chain cut from one precursor; also called rhHGF (R&D Systems); rhHGF
T3 sequence (P14210 32-728 limits assumed): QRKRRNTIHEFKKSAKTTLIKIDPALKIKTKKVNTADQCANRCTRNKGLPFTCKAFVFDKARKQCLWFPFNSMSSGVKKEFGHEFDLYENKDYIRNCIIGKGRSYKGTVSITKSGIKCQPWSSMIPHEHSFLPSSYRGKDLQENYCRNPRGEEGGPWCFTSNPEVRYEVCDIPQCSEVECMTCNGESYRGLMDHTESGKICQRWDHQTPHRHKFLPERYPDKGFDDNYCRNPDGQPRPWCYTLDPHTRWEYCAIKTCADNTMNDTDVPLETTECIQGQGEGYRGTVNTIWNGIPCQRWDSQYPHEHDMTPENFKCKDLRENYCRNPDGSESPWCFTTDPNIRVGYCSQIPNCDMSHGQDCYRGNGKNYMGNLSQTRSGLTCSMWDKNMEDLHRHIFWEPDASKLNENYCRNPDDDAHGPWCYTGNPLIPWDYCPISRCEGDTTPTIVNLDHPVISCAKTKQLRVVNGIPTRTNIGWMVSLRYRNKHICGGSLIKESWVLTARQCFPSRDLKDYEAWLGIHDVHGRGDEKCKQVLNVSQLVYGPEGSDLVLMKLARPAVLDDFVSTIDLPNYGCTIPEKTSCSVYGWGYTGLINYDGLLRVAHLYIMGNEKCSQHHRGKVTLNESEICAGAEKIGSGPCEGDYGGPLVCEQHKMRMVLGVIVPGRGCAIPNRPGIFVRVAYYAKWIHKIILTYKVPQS
Protocol: The plates then were blocked with 200 μL of 5% non-fat dry milk in PBS for 1 hour at room temperature. […] 100 μL of sample per well was transferred to the assay plate and incubated for 2 hours at room temperature. The resulting plates were washed three times with PBS-0.1% Tween 20, and incubated for 1 hour at room temperature with Eu-labeled Streptavidin (Wallac, Catalog No. 1244-360) diluted 1:1000 in DELFIA assay buffer (Wallac, Catalog No. 4002-0010). The resulting plates were washed 3 times with DELFIA wash solution (Wallac, Catalog No. 4010-0010) and incubated with 100 μL/well DELFIA enhancement solution (Wallac #4001-0010) for 15 minutes at room temperature with agitation. The plates were read on Victor³V instrument (Perkin Elmer) using the Europium method. The IC₅₀ values were calculated using Prism.

[2] = biological target: T3, recombinant human HGF (R&D Systems, …); test: cell-based or functional assay
[3] = biological target: T1, recombinant mhm chimeric HGF protein …; test: SPR, antibody immobilized, HGF protein injected, 25 C
Protocol: (§1) Analyses were performed at 25° C. using PBS (GIBCO, Catalog No. 14040-133) containing 0.05% surfactant P20 (BIAcore, Catalog No. R-1000-54), 2 mg/mL BSA (EMD, Catalog No. 2930) and 10 mg/mL CM-Dextran Sodium salt (Fluka, Catalog No. 86524) as running buffer. […] The resulting binding was determined as resonance units (RU) over baseline 30 seconds after the end of injection. […] Non-specific binding was monitored by comparing binding to a control surface.

[4] = biological target: T4, recombinant mouse HGF (R&D Systems) (mouse, UniProt Q08048 33-728); test: as above
T4 construct: Bought protein, construct not described; also called rmHGF (R&D Systems); murine HGF
T4 sequence (Q08048 33-728 limits assumed): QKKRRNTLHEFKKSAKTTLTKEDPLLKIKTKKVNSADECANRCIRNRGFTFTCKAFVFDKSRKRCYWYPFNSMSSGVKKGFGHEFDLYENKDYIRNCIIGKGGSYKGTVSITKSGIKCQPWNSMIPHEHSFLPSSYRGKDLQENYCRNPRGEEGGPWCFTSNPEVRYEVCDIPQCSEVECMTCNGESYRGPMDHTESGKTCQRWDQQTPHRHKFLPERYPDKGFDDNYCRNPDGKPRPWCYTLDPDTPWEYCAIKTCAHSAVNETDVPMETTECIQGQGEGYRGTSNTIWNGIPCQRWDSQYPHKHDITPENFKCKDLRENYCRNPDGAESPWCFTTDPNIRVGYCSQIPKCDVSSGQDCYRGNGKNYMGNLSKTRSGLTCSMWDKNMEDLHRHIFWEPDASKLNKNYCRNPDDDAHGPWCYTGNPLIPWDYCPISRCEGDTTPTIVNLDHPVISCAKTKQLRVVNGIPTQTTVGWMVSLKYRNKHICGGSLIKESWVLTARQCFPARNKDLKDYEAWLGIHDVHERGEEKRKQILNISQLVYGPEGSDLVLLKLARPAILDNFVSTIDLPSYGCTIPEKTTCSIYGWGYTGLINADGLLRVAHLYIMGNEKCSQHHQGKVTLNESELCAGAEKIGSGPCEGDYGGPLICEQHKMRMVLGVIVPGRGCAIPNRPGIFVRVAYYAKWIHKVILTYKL
Protocol: as §1

[5] = biological target: T2, recombinant mhm chimeric HGF protein …; test: as above
Protocol: as §1

[6] = biological target: T3, recombinant human HGF (R&D Systems, …); test: cell-based or functional assay; remark: listed apart in the source
[7] = biological target: T3, recombinant human HGF (R&D Systems, …); test: SPR, captured antibody, HGF injected, 25 C
Protocol: (§2) Mouse anti-human immunoglobulins (Jackson Labs, Catalog No. 209-005) were immobilized on carboxymethylated dextran CM4 sensor chips (BIAcore, Catalog No. BR-1006-68) by amine coupling (BIAcore, Catalog No. BR-1000-50) using a standard coupling protocol according to manufacturer's instructions. The analyses were performed at 25° C. using PBS (GIBCO, Catalog No. 14040-133) containing 0.05% surfactant P20 (BIAcore, Catalog No. BR-1000-54), and 2 mg/mL BSA (EMD, Catalog No. 2930).
(§3) The antibodies were captured in an individual flow cell at a flow rate of 10 μL/min. Injection time was variable for each antibody to yield approximately 20 RU of antibody captured for each cycle. […] The dissociation phase was monitored for 15 or 90 minutes, depending on concentration. The surface then was regenerated with 10 mM Glycine-HCl, pH 2.2 (BIAcore, Catalog No. BR-1003-54) injected for 3 minutes at a flow rate of 60 μL/min before another cycle was initiated.
Kinetic parameters were determined using the kinetic function of the BIAevalutation™ software with reference subtraction.

[8] = biological target: T3, recombinant human HGF (R&D Systems, …); test: SPR, captured antibody, HGF injected, 37 C
Protocol: as §2, with “209-005) or rabbit anti-mouse immunoglobulins (BIAcore, Catalog No. BR-1005-14)” for “209-005)”, “instructions. […]” for “instructions.”, “25° C. and 37°” for “25°”, “2930) as running buffer.” for “2930).”
as §3, with “[…].” for “μL/min.”, “surface of mouse anti-human immunoglobulins sensor chips was” for “surface”, “then” for “then was”, “initiated. The surface of rabbit anti-mouse immunoglobulins sensor chips was regenerated with 10 mM Glycine-HCl, pH 1.7 (BIAcore, Catalog No. BR-1003-54) injected for 3 minutes at a flow rate of 60 μL/min before another cycle was initiated.” for “initiated.”
Kinetic parameters were determined using the kinetic function of the BIAevaluation software with reference subtraction.

Binder | IC50 [1] | IC50, neutralization of HGF stimulated BrdU incorporation in 4 MBr-5 cells [2] | binding result [3] | binding result [4] | binding result [5] | EC50, inhibition of HGF-stimulated c-Met phosphorylation in PC-3 cells, Average of Two Trials [6] | Kd [7] | koff [7] | kon [7] | Kd [8] | koff [8] | kon [8]
HE2B8-1 (LR2B8HC + IgG1 constant region G1m(3) allotype allele 1, plus LR2B8LC + Kappa constant region Km(3) allotype allele 1) (antibody, V domains shown, Human Engineered 2B8 variant, human IgG1 kappa, made in HEK293E cells) VH: QVQLVQPGAEVVKPGTSVKLSCKASGYTFTTYWMHWVNQAPGQGLEWIGEINPTNGHTNYNEKFKGKATLTVDKSTSTAYMELSSLRSEDTAVYYCARNYVGSIFDYWGQGTLLTVSS VL: DIVMTQSPDSMAMSVGERVTLNCKASENVVSYVSWYQQKPGQSPKLLIYGASNRNTGVPDRFSGSGSATDFTLTISSVQAEDVADYHCGQSYNYPYTFGQGTKLEIKR | 6 nM | 0.47 nM | binds | no binding | binds | 0.8 nM | 0.0071 nM | 1.4e-05 s⁻¹ | 2.2e+06 M⁻¹ s⁻¹ | – | – | –
HE2B8-2 (LR2B8HC + IgG1 constant region G1m(3) allotype allele 1, plus LRMR2B8LC + Kappa constant region Km(3) allotype allele 1) (antibody, V domains shown, Human Engineered 2B8 variant, human IgG1 kappa, made in HEK293E cells) VH: QVQLVQPGAEVVKPGTSVKLSCKASGYTFTTYWMHWVNQAPGQGLEWIGEINPTNGHTNYNEKFKGKATLTVDKSTSTAYMELSSLRSEDTAVYYCARNYVGSIFDYWGQGTLLTVSS VL: DIVMTQSPDSLAMSLGERVTLNCKASENVVSYVSWYQQKPGQSPKLLIYGASNRESGVPDRFSGSGSATDFTLTISSVQAEDVADYHCGQSYNYPYTFGQGTKLEIKR | 5.7 nM | 0.66 nM | binds | no binding | binds | 0.88 nM | 0.0052 nM | 9.6e-06 s⁻¹ | 1.8e+06 M⁻¹ s⁻¹ | – | – | –

More lines, now with the values ahead:

IC50 [1] | IC50, neutralization of HGF stimulated BrdU incorporation in 4 MBr-5 cells [2] | binding result [3] | binding result [4] | binding result [5] | EC50, inhibition of HGF-stimulated c-Met phosphorylation in PC-3 cells, Average of Two Trials [6] | Kd [7] | koff [7] | kon [7] | Kd [8] | koff [8] | kon [8] | Binder
5.9 nM | 0.55 nM | binds | no binding | binds | 0.79 nM | 0.002 nM | 4.1e-06 s⁻¹ | 2e+06 M⁻¹ s⁻¹ | – | – | – | HE2B8-3 (LRMR2B8HC + IgG1 constant region G1m(3) allotype allele 1, plus LR2B8LC + Kappa constant region Km(3) allotype allele 1) (antibody, V domains shown, Human Engineered 2B8 variant, human IgG1 kappa, made in HEK293E cells) VH: QVQLVQPGAEVKKPGTSVKLSCKASGYTFTTYWMHWVRQAPGQGLEWIGEINPTNGHTNYNQKFQGRATLTVDKSTSTAYMELSSLRSEDTAVYYCARNYVGSIFDYWGQGTLLTVSS VL: DIVMTQSPDSMAMSVGERVTLNCKASENVVSYVSWYQQKPGQSPKLLIYGASNRNTGVPDRFSGSGSATDFTLTISSVQAEDVADYHCGQSYNYPYTFGQGTKLEIKR
4.2 nM | 0.52 nM | binds | no binding | binds | 0.93 nM | – | – | – | 0.0058 nM | 1.4e-05 s⁻¹ | 2.5e+06 M⁻¹ s⁻¹ | sh2B8-9 (G1m(3)) = hu2B8 Hv5-51.1 + IgG1 constant region (G1m(3) allotype, allele 2) plus hu2B8 Kv1-39.1 + Kappa constant region (Km(3) allotype, allele 2) (antibody, Superhumanized 2B8 variant, human IgG1 kappa, made in 293T cells) heavy: not shown light: DIQMTQSPSSLSASVGDRVTITCKASENVVSYVSWYQQKPGKAPKLLIYGASNRNTGVPSRFSGSGSGTDFTLTISSLQPEDFATYYCGQSYNYPYTFGQGTKLEIKRTVAAPSVFIFPPSDEQLKSGTASVVCLLNNFYPREAKVQWKVDNALQSGNSQESVTEQDSKDSTYSLSSTLTLSKADYEKHKVYACEVTHQGLSSPVTKSFNRGEC
